Measured values reported in PMC3906126 (2013).

Target: T1, ErbB4 PY3 motif (Homo sapiens, UniProt Q15303)
T1 chain: KPGTVLPPPPYRHRNTVV

- Kd: ~100 µM
Binder: DSEDELPPGWEERTTKDGWVYYANHTEEKTQWEHPKTGKR [WWOX WW1]
